This is an account of results in the Immune Epitope Database (IEDB).

Experiment [1] has as its target HLA-A*02:01. In words: IEDB peptide-MHC binding, purified MHC/competitive/radioactivity; filed as Kd, often an IC50 or EC50 that approximates it; ≥ and ≤ were set here for values at or beyond the usual limits of such assays.
The target in experiment [2] is HLA-A*02:02. The description is as above.
For experiment [3], the target named is HLA-A*02:03. Described as above.
Experiment [4] concerns the target HLA-A*02:06. The experiment is described as above.
In experiment [5] the target is HLA-A*03:01. Described as above. The settings on record: source organism: Vaccinia virus WR.
The target in experiment [6] is HLA-A*11:01. Described as above. The settings on record: source organism: Vaccinia virus WR.
For experiment [7], the target named is HLA-A*31:01. Described as above. The settings on record: source organism: Vaccinia virus WR.
The target in experiment [8] is HLA-A*33:01. Described as above. The conditions noted are these: source organism: Vaccinia virus WR.
Experiment [9] concerns the target HLA-A*68:01. Described as above. The conditions noted are these: source organism: Vaccinia virus WR.
The target of experiment [10] is HLA-A*68:02. The description is as above.
For experiment [11], the target named is HLA-B*07:02. Described as above. The settings on record: source organism: Vaccinia virus WR.
In experiment [12] the target is HLA-B*35:01. The experiment is described as above. The settings on record: source organism: Vaccinia virus WR.
The target in experiment [13] is HLA-B*51:01. The experiment is described as above. The settings on record: source organism: Vaccinia virus WR.
Experiment [14] has as its target HLA-B*53:01. Described as above. The settings on record: source organism: Vaccinia virus WR.
For experiment [15], the target named is HLA-B*54:01. The experiment is described as above. The settings on record: source organism: Vaccinia virus WR.
The target of experiment [16] is HLA-B*51:01. In words: IEDB peptide-MHC binding, purified MHC/competitive/fluorescence; filed as Kd, often an IC50 or EC50 that approximates it; ≥ and ≤ were set here for values at or beyond the usual limits of such assays. The conditions noted are these: source organism: Yersinia pestis Nepal516.
The target of experiment [17] is HLA-A*01:01. In words: IEDB peptide-MHC binding, purified MHC/competitive/radioactivity; filed as Kd, often an IC50 or EC50 that approximates it; ≥ and ≤ were set here for values at or beyond the usual limits of such assays. The settings on record: source organism: Dengue virus 3 Martinique/1243/1999.
For experiment [18], the target named is HLA-B*18:01. The experiment is described as above.
The target in experiment [19] is HLA-B*40:01. The description is as above.
The target in experiment [20] is HLA-B*40:02. The description is as above.
Experiment [21] addresses HLA-B*44:02. Described as above.
For experiment [22], the target named is HLA-B*44:03. The experiment is described as above.
In experiment [23] the target is HLA-B*45:01. Described as above.
For experiment [24], the target named is HLA-A*02:01. In words: IEDB peptide-MHC binding, purified MHC/direct/fluorescence; filed as Kd, often an IC50 or EC50 that approximates it; ≥ and ≤ were set here for values at or beyond the usual limits of such assays. The settings on record: source organism: Mammarenavirus lassaense.
For experiment [25], the target named is HLA-A*69:01. The description is as above. The settings on record: source organism: Mammarenavirus lassaense.
Setting [26] is: source organism: Vaccinia virus WR.
Setting [27] is: source organism: Dengue virus 2 Jamaica/1409/1983.
Where [28] appears, read: source organism: Trypanosoma cruzi.
[29] abbreviates: source organism: Dengue virus 3 Martinique/1243/1999.
[30] abbreviates: source organism: SARS coronavirus Tor2.
The mark [31] stands for this setting: source organism: Dengue virus 4 Philippines/H241/1956.
The mark [32] stands for this setting: source organism: Lassa virus Josiah.
Where [33] appears, read: source organism: Lassa virus GA391.
[34] abbreviates: source organism: Mammarenavirus whitewaterense.
The mark [35] stands for this setting: source organism: Hepatitis C virus (isolate BK).
Where [36] appears, read: source organism: Lymphocytic choriomeningitis virus (strain Armstrong).
[37] abbreviates: source organism: Mammarenavirus guanaritoense.

For TLNHVLALK, the Kd (as a rule, a measure of binding affinity in units of concentration) in [1] (setting [26]) is at least 78100 nM; in [2] (setting [26]) it was at least 77800 nM; in experiment [3] (setting [26]), 281 nM; in [4] (setting [26]) it was 14100 nM; in experiment [5], 2.47 nM; in experiment [6], 1.28 nM. The Kd is 36.1 nM in experiment [7]; 656 nM in [8]; 4.17 nM in experiment [9]; at least 76900 nM in experiment [10] (setting [26]); at least 77.5 µM in experiment [11]; 10.4 µM in experiment [12]. Further, the dissociation constant (Kd) in experiment [13] was at least 77.5 µM; in experiment [14] it was at least 78.2 µM; in experiment [15] it was at least 78100 nM.

With VVIAILTVV, the values for the Kd in [3] (setting [27]), in [4] (setting [27]) and in experiment [10] (setting [27]) were 33.8 nM, 13.6 nM and 347 nM, respectively.

Regarding RLQQELDDL, in experiment [10] (source organism: Homo sapiens), the Kd is at least 125000 nM.

As to ELLRPTTLV, the dissociation constant Kd in experiment [2] (setting [28]) was 4030 nM; in experiment [3] (setting [28]), 1390 nM; in experiment [4] (setting [28]), 2080 nM; in experiment [10] (setting [28]), 87 nM.

In turn, LPFVWAPMV displayed a Kd in [16] of 39.9 nM.

As for QVMLLVLCV, the Kd in experiment [10] (source organism: Dengue virus 2 Peru/IQT2913/1996) is 143 nM.

GVSWMIRILI: the Kd in [10] (source organism: Dengue virus 4 Dominica/814669/1981) turned out to be 197 nM.

Regarding YSIPATLLV, the Kd in experiment [17] was 941 nM; in [4] (setting [29]) it was 10.2 nM; in [10] (setting [29]), 16.9 nM.

Consider NTYLFNILY, for which the Kd came out at 946 nM in experiment [1] (setting [26]); 1570 nM in experiment [2] (setting [26]); 1550 nM in experiment [3] (setting [26]); 6110 nM in experiment [4] (setting [26]); 625 nM in experiment [5]; 263 nM in experiment [6]. Besides, the Kd was 688 nM in [7]; 1480 nM in experiment [8]; 722 nM in [9]; 7350 nM in experiment [10] (setting [26]); at least 29.2 µM in experiment [11]; 10.5 µM in experiment [12]. Besides, the Kd is 17.7 µM in experiment [13], 5.69 µM in experiment [14] and 1430 nM in experiment [15].

For the sequence LTVAWRTATL, the Kd in experiment [10] (setting [29]) is 32.4 nM.

On to DLKDLEAHI, for which the values for the dissociation constant Kd in [1] (source organism: Homo sapiens), in experiment [4] (source organism: Homo sapiens) and in [10] (source organism: Homo sapiens) were at least 83400 nM, at least 109000 nM and 17600 nM, respectively.

Turning to IEYSDFATSA, the Kd turned out to be 0.135 µM in experiment [18] (setting [30]); 16.7 µM in experiment [19] (setting [30]); 147 nM in [20] (setting [30]); 0.728 µM in [21] (setting [30]); 658 nM in experiment [22] (setting [30]); 154 nM in experiment [23] (setting [30]).

As for HEFVDEFYA, the Kd in [18] (setting [30]) amounted to 3.01 µM; in experiment [19] (setting [30]), 1.19 µM; in experiment [20] (setting [30]) it was 55 nM; in [21] (setting [30]) it was 18.6 µM; in experiment [22] (setting [30]) it was 5580 nM; in experiment [23] (setting [30]), 157 nM.

On to DEWSVATFYL, for which the Kd in [18] (setting [30]) is 0.0771 µM; in experiment [19] (setting [30]), 1.49 µM; in [20] (setting [30]) it was 119 nM; in experiment [21] (setting [30]) it was 0.939 µM; in experiment [22] (setting [30]), 356 nM; in experiment [23] (setting [30]) it was 1010 nM.

NIHTAITQV: the Kd in experiment [3] (setting [31]) turned out to be 26.1 nM; in [10] (setting [31]), 152 nM.

Regarding DKLVDPINY, the Kd in experiment [18] (source organism: Variola virus) is at least 77.5 µM; in [19] (source organism: Variola virus), 15.5 µM; in experiment [20] (source organism: Variola virus), at least 77200 nM; in [21] (source organism: Variola virus), at least 77.9 µM; in experiment [22] (source organism: Variola virus) it was at least 78100 nM; in experiment [23] (source organism: Variola virus), at least 77700 nM.

With LPRPDTRHL, the Kd in experiment [1] (setting [26]) was at least 78100 nM; in experiment [2] (setting [26]), at least 77800 nM; in experiment [3] (setting [26]) it was at least 78100 nM; in [4] (setting [26]), 18400 nM; in experiment [5] it was at least 58200 nM; in experiment [6], at least 77900 nM. In addition, the Kd in experiment [7] is at least 77900 nM; in [8], at least 77700 nM; in [9], at least 77700 nM; in experiment [10] (setting [26]) it was at least 76900 nM.

For FANYGFTLA, the Kd in experiment [1] (setting [28]) turned out to be 1500 nM; in experiment [2] (setting [28]), 1980 nM; in experiment [3] (setting [28]), 46.2 nM; in experiment [4] (setting [28]), 0.447 nM; in experiment [10] (setting [28]), 1640 nM.

Regarding FVFSTSFYL, the Kd in experiment [24] was at most 1 nM; in experiment [25], 1.2 nM; in experiment [2] (setting [32]) it was 1.5 nM; in [3] (setting [32]) it was 51 nM; in experiment [4] (setting [32]), 13.7 nM; in [10] (setting [32]) it was 0.508 nM.

For the sequence LLHGLDFSEV, the Kd in experiment [1] (setting [33]) was 65.8 nM; in experiment [2] (setting [33]), 117 nM; in [3] (setting [33]), 3.57 nM; in [4] (setting [33]) it was 71.2 nM; in experiment [10] (setting [33]) it was at least 5000 nM.

As for IDYRHYSASF, the Kd in [18] (setting [30]) is at least 31.5 µM; in experiment [19] (setting [30]), at least 44.6 µM; in [20] (setting [30]), 2670 nM; in experiment [21] (setting [30]), 5.84 µM; in experiment [22] (setting [30]), at least 36500 nM; in experiment [23] (setting [30]), 978 nM.

Consider SDHLISEIL, for which the Kd in experiment [18] (setting [34]) is at least 77.5 µM; in experiment [19] (setting [34]), 8.52 µM; in [20] (setting [34]) it was 83.1 nM; in experiment [21] (setting [34]) it was 9.12 µM; in experiment [22] (setting [34]), at least 78100 nM; in experiment [23] (setting [34]), 1660 nM.

With CVNGVCWTV, the Kd came out at 1020 nM in experiment [1] (setting [35]); 1040 nM in experiment [2] (setting [35]); 2080 nM in experiment [3] (setting [35]); 2670 nM in experiment [4] (setting [35]); 948 nM in experiment [10] (setting [35]).

With ADNMITEML, the Kd in experiment [18] (setting [36]) was at least 77.5 µM; in experiment [19] (setting [36]), 19.5 µM; in experiment [20] (setting [36]) it was 1410 nM; in [21] (setting [36]), 17.7 µM; in [22] (setting [36]), 17800 nM; in experiment [23] (setting [36]), at least 77700 nM.

In the case of SEFDRDAAM, the Kd stood at 2.51 µM in [18] (setting [30]); 0.21 µM in [19] (setting [30]); 1010 nM in [20] (setting [30]); 0.745 µM in experiment [21] (setting [30]); 532 nM in experiment [22] (setting [30]); 18300 nM in [23] (setting [30]).

For AEFTFQLNL, the dissociation constant (Kd) in experiment [18] (setting [37]) turned out to be 5.93 µM; in experiment [19] (setting [37]), 0.0661 µM; in experiment [20] (setting [37]) it was 0.946 nM; in experiment [21] (setting [37]), 0.0599 µM; in experiment [22] (setting [37]), 50.8 nM; in [23] (setting [37]), 210 nM.
